Source: PMC9797058
pKd: −log10 of the molar value.

Key:
[1] = target: N-terminally His-tagged Pasteurella multocida toxin (PMT) (Pasteurella multocida) (UniProt P17452); test: ELISA; solid-phase binding assay; His-PMT coated at 10 ug/mL (500 ng/well) on 96-well Maxisorb plates at 4 C overnight; LRP1 cluster 2, 3 or 4 at 0.02-500 nM, RT, 2 h; TBS with 2 mM CaCl2; bound ligand detected with goat anti-human IgG-HRP
LRP1 (Homo sapiens) = LRP1 (Homo sapiens) (UniProt Q07954); details: cited from earlier work

Sequence of UniProt P17452 (P17452 whole entry): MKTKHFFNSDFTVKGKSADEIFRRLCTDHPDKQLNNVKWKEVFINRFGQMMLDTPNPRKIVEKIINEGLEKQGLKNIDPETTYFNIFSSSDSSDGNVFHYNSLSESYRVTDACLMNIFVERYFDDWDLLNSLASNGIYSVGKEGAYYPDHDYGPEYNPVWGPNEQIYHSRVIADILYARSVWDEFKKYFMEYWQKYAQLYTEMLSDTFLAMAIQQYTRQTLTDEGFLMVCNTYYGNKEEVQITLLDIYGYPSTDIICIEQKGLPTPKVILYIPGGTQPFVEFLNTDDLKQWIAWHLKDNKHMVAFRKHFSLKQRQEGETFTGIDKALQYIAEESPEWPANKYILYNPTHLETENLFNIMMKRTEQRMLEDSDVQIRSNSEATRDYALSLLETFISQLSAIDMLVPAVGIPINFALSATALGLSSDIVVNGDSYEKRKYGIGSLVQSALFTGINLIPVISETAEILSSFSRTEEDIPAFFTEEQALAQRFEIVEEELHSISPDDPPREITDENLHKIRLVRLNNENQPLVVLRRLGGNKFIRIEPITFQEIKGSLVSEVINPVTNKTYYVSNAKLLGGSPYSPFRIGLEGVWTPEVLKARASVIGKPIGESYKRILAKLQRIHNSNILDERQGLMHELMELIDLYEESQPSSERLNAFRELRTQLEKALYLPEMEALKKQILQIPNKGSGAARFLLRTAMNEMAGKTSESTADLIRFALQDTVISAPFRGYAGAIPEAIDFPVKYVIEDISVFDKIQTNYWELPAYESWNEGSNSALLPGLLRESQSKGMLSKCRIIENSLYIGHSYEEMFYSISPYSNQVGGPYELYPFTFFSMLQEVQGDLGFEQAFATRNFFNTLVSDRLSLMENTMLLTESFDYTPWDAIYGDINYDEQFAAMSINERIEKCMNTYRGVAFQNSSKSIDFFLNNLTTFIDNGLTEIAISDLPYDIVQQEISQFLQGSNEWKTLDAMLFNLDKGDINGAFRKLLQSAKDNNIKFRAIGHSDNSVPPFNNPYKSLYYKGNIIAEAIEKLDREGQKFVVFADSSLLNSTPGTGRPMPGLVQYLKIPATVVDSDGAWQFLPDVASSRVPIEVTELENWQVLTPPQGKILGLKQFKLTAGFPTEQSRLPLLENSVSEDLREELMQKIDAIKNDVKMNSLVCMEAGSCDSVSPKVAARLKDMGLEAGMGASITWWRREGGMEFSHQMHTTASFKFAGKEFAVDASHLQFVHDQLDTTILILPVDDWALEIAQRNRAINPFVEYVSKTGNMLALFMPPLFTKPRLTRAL

Row | Substance | pKd [1] | pKd (LRP1 (Homo sapiens))
1 | LRP1 cluster 2 (commercially available extracellular domain) (from UniProt Q07954 20-4544) (domain or fragment) | 7.38 | 
2 | LRP1 cluster 4 (commercially available extracellular domain) (from UniProt Q07954 20-4544) (domain or fragment) | 8.64 | 
3 | Pseudomonas exotoxin A (from UniProt P11439) |  | 8.28
